Where two headings read alike, the source gives them in different places.

The values below come from paper PMC9321335, “Palmitic Acid-Conjugated Radiopharmaceutical for Integrin αvβ3-Targeted Radionuclide Therapy” (Pharmaceutics, 2022).

A short description of one data set: physchem. Format: physicochemical. As for the experimental part: Briefly, the radiopharmaceuticals were prepared and purified with Sep-Pak-C18 cartridges and then dissolved in a mixed solution of 5 mL n-octanol and 5 mL PBS. After vortexing for 1 h, the mixture was centrifuged at 10,000 rpm for 10 min. Samples (100 μL, n = 4) from the n-octanol and PBS components were collected and counted using a γ-counter. The […] were calculated as the logarithm of the n-octanol/PBS ratio.

Another data set has as its system MC38 tumor-bearing mice. The data set is described as follows: in vivo. Conditions: mouse. As for the experimental part: Mice bearing MC38 xenografts were randomly divided into 10 groups (n = 4). The mice in five groups were administered 0.74 MBq/20 µCi of ^177Lu-Palm-3PRGD2 and sacrificed at 1, 4, 12, 24, and 72 h p.i. The mice on one group was injected with 0.74 MBq/20 µCi of ^177Lu-Palm-3PRGD2 and 500 μg (242 nmol) 3PRGD2 as a blocking agent and sacrificed at 1 h p.i. […] Tumors and major organs were harvested, weighed and measured for radioactivity using a γ-counter. The organ uptake was calculated as the percentage injected activity per gram (%IA/g). The effective absorbed dose in humans estimated from mouse biodistribution data by using a dedicated software (OLINDA 1.0).

Details of data set [1]: species or system C57BL/6 mice. The conditions noted are these: mouse, in vivo. As for the experimental part:
Female KM mice were randomly divided into three groups (n = 5). […] Blood samples obtained from the canthus vein were collected at different time points post injection (p.i.), weighed, and evaluated using a γ-counter. The results are presented as the percentage injected activity per gram (%IA/g). Nonlinear regression (curve fit) followed by two phase decay was performed using GraphPad Prism version 9.0.0 for Windows, GraphPad Software, San Diego, CA, USA, www.graphpad.com (accessed on 22 May 2022). And then the half-lives values were calculated and determined. Blood clearance studies were performed in normal KM mice. […] Blood clearance studies were also performed in C57BL/6 mice.

The next data set in a line: in vivo. On the set-up: species or system C57BL/6 mice. Conditions: C57BL/6, mouse, 37 MBq, total radioactivity. How it is done: SPECT/CT imaging was performed using a small animal SPECT/CT imaging system (Mediso Inc., Budapest, Hungary). Each mouse bearing MC38 tumors was injected with a radiotracer at a radioactivity of 37 MBq/1 mCi. The mice were imaged at 1, 4, 12, 24, and 72 h after injection of ^177Lu-Palm-3PRGD2 (37 MBq, 2.7 nmol), and the mice in the blocking study were imaged at 1 h p.i. […] Pinhole SPECT images (peak, 56.1, 112.9, and 208.4 keV; 20% width; frame time, 25 s) were acquired, and CT images were subsequently acquired (50 kV; 0.67 mA; rotation, 210°; exposure time, 300 ms). The raw data were reconstructed in a whole-body region. The SPECT and CT images were then fused using Nucline v 2.01 (Mediso Inc., Budapest, Hungary). The maximum intensity projection (MIP) was determined for whole-body imaging from the posterior view.

Details of data set [2]: species or system KM mice. Conditions: mouse, in vivo, iv. As for the experimental part:
Female KM mice were randomly divided into three groups (n = 5). […] Blood samples obtained from the canthus vein were collected at different time points post injection (p.i.), weighed, and evaluated using a γ-counter. The results are presented as the percentage injected activity per gram (%IA/g). Nonlinear regression (curve fit) followed by two phase decay was performed using GraphPad Prism version 9.0.0 for Windows, GraphPad Software, San Diego, CA, USA, www.graphpad.com (accessed on 22 May 2022). And then the half-lives values were calculated and determined.

In the data set “physchem”, `CCCCCCCCCCCCCCCC(=O)N[C@@H](CCC(=O)NCCCC[C@H](NC(=O)CN1CCN(CC(=O)O)CCN(CC(=O)O)CCN(CC(=O)O)CC1)C(=O)NCCOCCOCCOCCOCCC(=O)N[C@@H](CCC(=O)NCCOCCOCCOCCOCCC(=O)NCCCC[C@@H]1NC(=O)[C@@H](Cc2ccccc2)NC(=O)[C@H](CC(=O)O)NC(=O)CNC(=O)[C@H](CCCNC(=N)N)NC1=O)C(=O)NCCOCCOCCOCCOCCC(=O)NCCCC[C@@H]1NC(=O)[C@@H](Cc2ccccc2)NC(=O)[C@H](CC(=O)O)NC(=O)CNC(=O)[C@H](CCCNC(=N)N)NC1=O)C(=O)O` [^177Lu-Palm-3PRGD2, [^177Lu]Lu-DOTA-Palm-3PRGD2, metal not drawn] registered a logD of -1.25 ± 0.07. In the data set with MC38 tumor-bearing mice, the “AUC0h→72h in MC38 tumor” value came to 1031.0 ± 97.25 % IA/g·h, the AUC0h→72h in blood stood at 104.5 ± 7.98 % IA/g·h, the AUC0h→72h in kidney was 1087.0 ± 62.73 % IA/g·h and the AUC0h→72h in liver was found to be 915.6 ± 74.74 % IA/g·h. In addition, in data set [1], the “Half-Life (T1/2α)” value is 2.08 min and the “Half-Life (T1/2β)” value was 63.71 min. In addition, the tissue uptake per volume at 1 h in the data set “in vivo” came to 15 ± 0.13 %ID/mL. For the same compound, in data set [2], the “Half-Life (T1/2α)” value is 4.49 min and the “Half-Life (T1/2β)” value worked out at 73.42 min.

Usually logD stands for the decadic logarithm of the distribution of all forms, ionised or not, between an organic phase and buffer at a given pH. High values mean higher lipophilicity, low ones lower lipophilicity.
